Consider one protein from doi:10.1101/151191 (bioRxiv, 2017).

Broadly, the stoichiometry N is a count of units in the complex or per binding partner.

The data set “SEC” concerns the molecule itself. The experiment in a line: SEC. (SEC sorts molecules by how far they enter the pores of the column.)
The data set “AUC” concerns the molecule itself. The experiment in a line: AUC.

B1: α-mDelNT (N-terminal half of mouse α-Delphilin) (domain or fragment, UniProt Q0QWG9-2 1-558, looked up)
chain: MSCLGIFIPKKHRARFDEVVSQGLLGKLCRARRAQGAQRLRRSRSEERPERLLVSTRASAAPRRPDEPPPRKATSLLGGRTGPGGPRRTVRVYKGNKSFGFTLRGHGPVWIESVLPGSPAENASLKSGDRILFLNGLDMRNCSHDKVVSMLQGSGAMPTLVVEEGPVPFASDSDSLDSPTRASALTSLQWVADILPSSIRVQGRTFSQQLDHLLTPPERYGVCRALERFFQHRNIDTLIVDVYPVLDTPAKQVLWQFLYQLLTYEEQELCQEKIACFLGYTAMTEPESSLDLEPESTPEPTPEPQPRSSLRASSMCRRSLRSQGLETSLSCGPGDCPEMPLPLIPGERQAGDGTSLPETPNPKMMSAVYAELESRLNSSFKGKIGTMSKSRASPPVPSLVGTSGPRTLSGVSWPSDRLLPSPCYDPLCSGGLASPSSSESHPYASLDSSRAPSPQPGLGSIHADSPPSPDPIRPPSRRKLFAFSRPVRSRDTDRFLDALSEQLGPRLSIVDDFLTPENDYEEMSFHDDQGSFVTNERSSASECVSSSEEGSSLTYSSI
On to B1, for which the “stoichiometry N” value was 7 subunits in “SEC” and 6 subunits in “AUC”.
